The nanobody polyreactivity screen of Harvey et al. (2022)

Assay: yeast display, Sf9 membrane polyspecificity reagent, FACS + sequencing; frameworks hold sequencing errors
In short: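 Polyreactivity labels are assigned by the sorting gate from which each nanobody was recovered. The gates were low and high (top ~1%), set on anti-HA fluorescence for expression and streptavidin fluorescence for reagent binding. Before sorting, galactose-induced (36–48 hours) yeast display cells were stained for 1 hour at 4 °C with 10% biotinylated, detergent-solubilized Sf9 membrane reagent.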

Sequence	polyreactivity (PSR sort gate)
QVQLVESGGGLVQAGGSLRLSCAASGLIFARYATGWYRQAPGKERELVAAITDTGDITYSADSVKGRFTISRDNAKNTVYLQMNSLKPEDTGVYYCNADGVESVGGVETLYWRGGYWGQGTQVTVSS	low polyreactivity
QVQLVESGGGLVQAGGSLRLSCAASGLIFARYVMGWYRHAPGKERELVADIDKGGGSTYYADSVKGRFTISRDNAKNTDSLQMNSLKPEDSSVYYCIADFDGWWWDDYRGQGTQVTVSS	high polyreactivity
QVQLVESGGGLVQAGGSLRLSCAASGLIFAYNAMGWYRQAPGKERELVAAITGGGDGTYYADSVKGRFTISRDNAKNTVYLQMNSLKPEDTAVYYCAADFGNSPYIKVYYYWGQGTQVTVSS	low polyreactivity
QVQLVESGGGLVQAGGSLRLSCAASGLIFAYNTMGWYRQAPGKERELVAGITSSGSTYYADSVKGRFTISRDNAKNTVYLQMNSLKPEDTAVYYCAAEWDDGRSWYWYYLVGFEYWGQGTQVTVSS	high polyreactivity
QVQLVESGGGLVQAGGSLRLSCAASGLIFDRNAMGWYRQAPGKERELVAAITYSGSRTYYADSVKGRFTISRDNAKNTVYLQMNSLKPEDTAVYYCAARHRYSAGTEYNYWGQGTQVTVSS	high polyreactivity
QVQLVESGGGLVQAGGSLRLSCAASGLIFDSYAMGWYRQAPGKERELVAAITYTGGSTYYADSVKGRFTISRDNAKNTVYLQMNSLKPEDTAVYYCAAVTRYAGRIRYGYWGQGTQVTVSS	high polyreactivity
QVQLVESGGGLVQAGGSLRLSCAASGLIFDSYVMGWYRQAPGKERELVAVISGSGGSTYYADSVKGRFTISRDNAKNTVYLQMNSLKPEDTAVYYCAAQYSAGQYYGYGYWGQGTQVTVSS	high polyreactivity
QVQLVESGGGLVQAGGSLRLSCAASGLIFEPYVMGWYRQAPGKERELVASITWSAGSTYYADSVKGRFTISRDNAKNTVYLQMNSLKPDDTAVYYCAARHGYGWGFSGVPAQGYEYWGQGTQVTVSS	low polyreactivity
QVQLVESGGGLVQAGGSLRLSCAASGLIFFFYAMGWYRQAPGKERELVASISGGGITYYADSVKGRFTISRDNAKNTVYLQMNSLKPEDTAVYYCAARVLDWRGDIHDSEYWGQGTQVTVSS	low polyreactivity
QVQLVESGGGLVQAGGSLRLSCAASGLIFFINDMGWYRQAPGKERELVAAITSGGSTYYADSVKGRFTISRDNAKNTVYLQMNSLKPEDTAVYYCAADSYDWYDYWGQGTQVTVSS	high polyreactivity
QVQLVESGGGLVQAGGSLRLSCAASGLIFGGYAMGWYRQAPGKERELVAAISWDDGDTYYADSVKGRFTISRDNAKNTVYLQMNSLKPEDSAVYYCAAESLSGAHGYWGQGTQVTVSS	low polyreactivity
QVQLVESGGGLVQAGGSLRLSCAASGLIFGPYAMGWYRQAPGKERELVAGISRGGSTYYADSVKGRFTISRDNAKNTVYLQMNSLKPEDTAVYYCNAYTYPPYYSKWVRYRYDYWGQGTQVTVSS	high polyreactivity
QVQLVESGGGLVQAGGSLRLSCAASGLIFGTNAMGWYRQAPGKERELVAAISGSGGRTYYADSVKGRFTISRDNAKNTVYLQMNSLKPEDTAVYYCATAWYLGRYRRLGYWGQGTQVTVSS	high polyreactivity
QVQLVESGGGLVQAGGSLRLSCAASGLIFGTNAMGWYRQAPGKERELVAYITSGGSTYADSVKGRFTISRDNAKNTVYLQMNSLKPEDTAVYYCAAYVFWAFYEYDYWGQGTQVTVSS	low polyreactivity
QVQLVESGGGLVQAGGSLRLSCAASGLIFGWNARGWYRQAPGKERELVAAINSGGITNYADSVKGRFTISRDNAKNTVYFQMNWLKPEDTAVYYCAADVVQYGLDWYGEEYESWGQGTQVTVSS	low polyreactivity
QVQLVESGGGLVQAGGSLRLSCAASGLIFGWYAMGWYRQAPGKERELVAAISWSGSRTNYADSVKGRFTISRDNAKNTVYLQMNSLKPEDTAVYYCAAGWGYSASRYGYWGQGTQVTVSS	high polyreactivity
QVQLVESGGGLVQAGGSLRLSCAASGLIFGWYAMGWYRQAPGKERELVASISRSGGSTYYADSVKGRFTISRDNAKNTVYLQMNSLKPEDTAVYYCAALYYGFRLTYGYDYWGQGTQVTVSS	high polyreactivity
QVQLVESGGGLVQAGGSLRLSCAASGLIFGYYAKGWNTQAPGKERELVADISSGGSSNYADSVKGRFTISRDNAKNTVYLQMMSLKPEVTAVYYCAARYSRWFGFWGQGTQVTVSS	high polyreactivity
QVQLVESGGGLVQAGGSLRLSCAASGLIFGYYAMGWYRQAPGKERELVAAISWSGGRTYYADSVKGRFTISRDNAKNTVYLQMNSLKPEDTAVYYCAADTYPYIGGYYWGQVTQVTVSS	high polyreactivity
QVQLVESGGGLVQAGGSLRLSCAASGLIFHFNAMGWYRQAPGKERELVAAITSIGGSTFYADSVKGRFTISRDNAKNTVYLQMNSLKPEDTAVYYCAAAISYFFPDYDYWGQGTQVTVSS	low polyreactivity
QVQLVESGGGLVQAGGSLRLSCAASGLIFKDYAMGWYRQAPGKERELVAAISSSGGSTYYADSVKGRFTISRDNAKNTVYLQMNSLKPEDTAVYYCAARSFRYYSDYGYWGQGTQVTVSS	high polyreactivity
QVQLVESGGGLVQAGGSLRLSCAASGLIFKIYAMGWYRQAPGKERELVASISSNGGTYYADSVKGRFTISRDNAKKTVYLQMNSLKPEDTAVYYCNAKRVARYQYGASYNYWGQGTQVTVSS	high polyreactivity

Sequence	polyreactivity (PSR sort gate)
QVQLVESGGGLVQAGGSLRLSCAASGLIFKSYLMGSYRQAPGKERELVAGITGSGGTTYYADSVKGRFTISRDNAKNTVYLQMNSLKPEDTAVYYCAARSRSRPKYDYWGQGTQVTVSS	high polyreactivity
QVQLVESGGGLVQAGGSLRLSCAASGLIFKVYAMGWYRQAPGKEWELVAAITYSGGSTDYADSVKGRFTISRDNAKNTVNLQMNSLKPEDTAVYYCNVEKVGHVNSYGYDYWGQGTQVTVSS	low polyreactivity
QVQLVESGGGLVQAGGSLRLSCAASGLIFLTYAMGWYRQAPGKERELLATISGSTGGTYYADSVKGRFTISRDNAKNSVYLKMNSLKPEDTAVYYCNRRYGRSFRWGYCYWGEGTQVTVSS	low polyreactivity
QVQLVESGGGLVQAGGSLRLSCAASGLIFLYYAMGWYRQAPGKERELVAAISSSGSTYYADSGKGRFTISRDNAKNTVYLQMNSLKPEDTAVYYCAAAGYLYPYRYYYWGQGTQVTVSS	high polyreactivity
QVQLVESGGGLVQAGGSLRLSCAASGLIFLYYAMGWYRQAPGKERELVAAISSSGSTYYADSVKGRFTISRDNAKNTVYLQMNSLKPEDTAVYYCAAAGYLYPYRYYYWGQGTQVTVSS	high polyreactivity
QVQLVESGGGLVQAGGSLRLSCAASGLIFNFYAMGWYRPAPGKEREFVAAISWNAGSTYYADSVKGRFTISRDNAKNTVYLQMNSLKPEDTAVYYCNADQDYQGARPSGMDYWGQGTQVTVSS	low polyreactivity
QVQLVESGGGLVQAGGSLRLSCAASGLIFNTYAMGWYRQAPGKERELVAAITDGGGTNYADSVKGRFTISRDNAKNTVYLQMNSLKPEDTAVYYCAARLASWPLTYDFQWYEYWVQGTQVTVSS	low polyreactivity
QVQLVESGGGLVQAGGSLRLSCAASGLIFNVNAMGWYRQAPRKERELVAAITGGGGSTYYADSVKGRFTISRDNAKNTVYLQMNSLKPEDTAVYYCAATTGLYTRYGDWGQVTQVTVSS	high polyreactivity
QVQLVESGGGLVQAGGSLRLSCAASGLIFPGYDMGWYRAAPGKVRELVAAISDSGANTYYADSVKVRFTISRDNAKNTVYLQMNSLKPEDTAVYYCAADSSWGYGTYFGRFDYWGQGTQVTVSS	low polyreactivity
QVQLVESGGGLVQAGGSLRLSCAASGLIFPLYAMGWYRQAPGKERELVAAISRTGVSTDYADSVKGRFTISRDNAKNTVYLQMNSLKPEDTAVYYCNKVRTPRRRYDYWGQGTQVTVSS	low polyreactivity
QVQLVESGGGLVQAGGSLRLSCAASGLIFPRYDIGWYRQAPGKESEFVAAITSGGGTYYADSVKGRFTLSRDNAKNTVYLQMNSVKPEDTAVYYCARDHYRHSRYFYRYDYWGQGTQVTVSS	low polyreactivity
QVQLVESGGGLVQAGGSLRLSCAASGLIFPSYARGWYRQAPGKERELVAGINSGGSTNYADSVKGRFTISRDNAKNTVYLQMNSLKPEDTAVYYCAKDNNYYWYVSPRDYWGQGTQVTVSS	low polyreactivity
QVQLVESGGGLVQAGGSLRLSCAASGLIFPYYAMGWYREAPGKARELVASIRYSAGNTYYADSVKGRFTISRDNAKNTVYLQMNSLKPEDTAVYYCWYTQNTLGNYWGQGTQVTVSS	low polyreactivity
QVQLVESGGGLVQAGGSLRLSCAASGLIFPYYTMGWYRQAPGKEGELVAVINRGGSTSYADSVKGRFTISRDNEKISVYLQMNSLKPEYTAVYYCARRTPYYTSYAFDSWGQGTQVTVSS	high polyreactivity
QVQLVESGGGLVQAGGSLRLSCAASGLIFQGYAMGWYRQAPGKEREFVAVITWSGGSTYYADSVKGRFTISRDNAKNTVYLQMNSLKPEDTAVYYCADDDVWYDFDYWGQGTQVTVSS	low polyreactivity
QVQLVESGGGLVQAGGSLRLSCAASGLIFQVYDMGWYRQAPGKERELVAATSSGSKTNYADSVKGRFTISRDNAKNTVYLQMNSLKPEDTAVYYCAAGGPSTLDDYWGQGTQVTVSS	low polyreactivity
QVQLVESGGGLVQAGGSLRLSCAASGLIFRFYAMGWYRQAPGKERELVAAISGGGGSTYYADSVKGRFTISRDNAKNTVYFQMNSLKPEDTAVYYCNTVNDKRAYGKMGYWGQGTQVTVSS	high polyreactivity
QVQLVESGGGLVQAGGSLRLSCAASGLIFRGYAMGWYRQAPGKERELVAAISKSGGSTYYADSVKGRFTISRDNAKNTVYLQMNSLKPEDTAVYYCNARKHGSRTGGYYWGQGTQVTVSS	high polyreactivity
QVQLVESGGGLVQAGGSLRLSCAASGLIFRHYAMGWYRQAPGKERELVAAINWDGTSTDYADSVKGRFTISRDNAKNTVYLQMNSLKPEDTAVYYCAAEGHTAFVVYRVSPLQYDYWGHGTQVTVSS	low polyreactivity
QVQLVESGGGLVQAGGSLRLSCAASGLIFRIYAMGWYRQAPGKETELVAAISNSGGYTYYADSVKGRFTISRDNAKNTVYLQMNSLKPEDTAVYYCAAELRLWPWRRFDYWGQGTQVTVSS	high polyreactivity
QVQLVESGGGLVQAGGSLRLSCAASGLIFRKNAMGWYRQAPGKEMELVAAISSSDSSTYADSVKGRCTISRDNAKNTVYLQMNSLKPEDTAVYYCAAASYNWLDWVTREYWGQGTQVTVSS	low polyreactivity
